Experimental data from PMC11686323 (Communications Biology, 2024).

Target: the molecule itself
Test: cryo-EM structure

B1: phosphoglucomutase GlmM of Lactococcus lactis (enzyme, UniProt A2RIG0 1-452, looked up)
chain: MGKYFGTDGVRGEANVELTPEMAFKLGRFGGYVLSQHELETPKVYVGRDTRISGQMLASSLISGLLSVGIEVYDLGVIATPGVAYLVKKDGASAGVMISASHNPALDNGIKFFGGDGYKLEDEKELEIEALIDAKEDTLPRPSAQGLGMLHDYIEGVRKYQAFLKTTAEGDFEGYNVVLDTANGASYTSARAVFADLKANLTVIGENPDGLNINVKVGSTHPEAMAKKVVETGSDLGLAFDGDADRLIAVDENGEIVDGDKIMFIVGKYLLEQGKLAQDTLVTTVMSNLGFHLALEEAGINSVITAVGDRYVVEEMKKNNYNFGGEQSGHMIFLDYNTTGDGQLSAIQLLKVMRETGKTLSELASEVTIYPQKLVNVRVKDNAAKKSAMDVPAIQKVISEMETSMNGKGRILVRPSGTEPLLRVMAEAPTHEQVDHVVDTIVEVVEEEIGVK
B1 was tested, and the “stoichiometry N” value was 2.
